In publication PMC11782662, “Phase separation of a microtubule plus-end tracking protein into a fluid fractal network” (Nature Communications, 2025):

Molecular target: the molecule itself
Experiment: SEC-SAXS; Shodex KW-404 column in line with SAXS; 20 mM Tris-HCl, pH 7.5, 500 mM NaCl, 2% glycerol, 1 mM DTT; injected at 4, 6 and 8 mg/ml; ab initio envelopes (DAMMIF)

| Protein | binding result | stoichiometry N |
| --- | --- | --- |
| Bik1 ΔQQFF (domain or fragment, S. cerevisiae, UniProt P11709 1-436, looked up, Bik1, S. cerevisiae, UniProt P11709, lacking the C-terminal EEY/F-like motif (peptide Gln-Gln-Phe-Phe); N-terminal 6xHis-tag followed by a PreScission site, tag retained; source: E. coli BL21-CodonPlus (DE3)-RIPL, purified (IMAC, SEC); not shown: His6, N-terminal, kept) MDRYQRKIGCFIQIPNLGRGQLKYVGPVDTKAGMFAGVDLLANIGKNDGSFMGKKYFQTEYPQSGLFIQLQKVASLIEKASISQTSRRTTMEPLSIPKNRSIVRLTNQFSPMDDPKSPTPMRSFRITSRHSGNQQSMDQEASDHHQQQEFGYDNREDRMEVDSILSSDRKANHNTTSDWKPDNGHMNDLNSSEVTIELREAQLTIEKLQRKQLHYKRLLDDQRMVLEEVQPTFDRYEATIQEREKEIDHLKQQLELERRQQAKQKQFFDAENEQLLAVVSQLHEEIKENEERNLSHNQPTGANEDVELLKKQLEQLRNIEDQFELHKTKWAKEREQLKMHNDSLSKEYQNLSKELFLTKPQDSSSEEVASLTKKLEEANEKIKQLEQAQAQTAVESLPIFDPPAPVDTTAGRQQWCEHCDTMGHNTAECPHHNPDN | binds |  |
| N-terminally His-tagged, full-length Bik1 (natural protein, S. cerevisiae, UniProt P11709 1-440, looked up, Bik1, S. cerevisiae, UniProt P11709, full length (domains described over residues 1-440); Vector PSPCm2: N-terminal 6xHis-tag followed by a PreScission cleavage site; also called Bik1 FL; FL; source: E. coli BL21-CodonPlus (DE3)-RIPL, purified (IMAC, SEC); not shown: His6, N-terminal, kept) MDRYQRKIGCFIQIPNLGRGQLKYVGPVDTKAGMFAGVDLLANIGKNDGSFMGKKYFQTEYPQSGLFIQLQKVASLIEKASISQTSRRTTMEPLSIPKNRSIVRLTNQFSPMDDPKSPTPMRSFRITSRHSGNQQSMDQEASDHHQQQEFGYDNREDRMEVDSILSSDRKANHNTTSDWKPDNGHMNDLNSSEVTIELREAQLTIEKLQRKQLHYKRLLDDQRMVLEEVQPTFDRYEATIQEREKEIDHLKQQLELERRQQAKQKQFFDAENEQLLAVVSQLHEEIKENEERNLSHNQPTGANEDVELLKKQLEQLRNIEDQFELHKTKWAKEREQLKMHNDSLSKEYQNLSKELFLTKPQDSSSEEVASLTKKLEEANEKIKQLEQAQAQTAVESLPIFDPPAPVDTTAGRQQWCEHCDTMGHNTAECPHHNPDNQQFF |  | 2 |
